Laboratory results from patent US20090233868.
pIC50: −log10 of the molar value.

How the values were obtained:
[1] = system: T1, LaR2C-N7 (La 174-180) (Homo sapiens); test: inhibition; details: inhibition of HCV IRES translation in rabbit reticulocyte lysate; rescued by La
T1 sequence: KYKETDL

[2] = molecular target: T2, LaR2C peptide (24-mer, La 174-197) (Homo sapiens) (UniProt P05455); test: inhibition; details: inhibition of HCV IRES translation in rabbit reticulocyte lysate
T2 sequence: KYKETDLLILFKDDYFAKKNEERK

HCV IRES-luciferase monocistronic RNA (uncapped)
pIC50 [1]: 4.40 | pIC50 [2]: 4.52
